This passage reports Ki results from US20160354480A1 (VECT HORUS, published 2016).

In experiment [1] the target is T1, human neurotensin receptor type 1 (human, UniProt P30989 1-418).
T1 construct: whole, on cells; Used as cell membrane homogenates (0.5 ug/well), not intact cells; also called hNTR-1; Human NTR-1
In words: competition with [3H]-neurotensin on membranes of CHO cells expressing human NTR-1; Ki from mean IC50 by Cheng-Prusoff.

In experiment [2] the target is T2, rat neurotensin receptor type 1 (rat, UniProt P20789 1-424).
T2 construct: whole, on cells; Used as membrane homogenates of transfected HEK 293 cells (0.75 ug/well), not intact cells; also called rNTR-1; rNTR1
In words: competition with [3H]-neurotensin on membranes of HEK 293 cells expressing rat NTR-1; Ki from mean IC50 by Cheng-Prusoff.

Bridge positions count the residues as written; N and C are the ends. Square brackets hold non-standard residues; d marks the D form. Ends that are not written are not given here. * marks the point of attachment. Pen = CC(C)(S)[C@H](N)C(=O)O; Tle = CC(C)(C)[C@H](N)C(=O)O; Pip = O=C(O)[C@@H]1CCCCN1; Propionyl = CCC(=O)*; Sar = CNCC(=O)O

T2 sequence (P20789 whole entry): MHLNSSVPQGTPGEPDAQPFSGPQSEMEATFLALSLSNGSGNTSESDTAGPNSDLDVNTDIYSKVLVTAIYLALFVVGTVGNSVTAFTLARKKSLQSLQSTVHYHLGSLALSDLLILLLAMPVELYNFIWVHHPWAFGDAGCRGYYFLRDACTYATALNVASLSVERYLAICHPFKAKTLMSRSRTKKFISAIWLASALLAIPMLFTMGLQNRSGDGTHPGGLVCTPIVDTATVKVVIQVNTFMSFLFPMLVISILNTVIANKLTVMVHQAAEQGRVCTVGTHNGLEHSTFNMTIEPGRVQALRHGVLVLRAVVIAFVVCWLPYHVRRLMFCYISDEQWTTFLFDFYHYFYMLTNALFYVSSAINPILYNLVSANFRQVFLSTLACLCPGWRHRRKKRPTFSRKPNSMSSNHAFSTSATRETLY
T1 sequence (P30989 whole entry): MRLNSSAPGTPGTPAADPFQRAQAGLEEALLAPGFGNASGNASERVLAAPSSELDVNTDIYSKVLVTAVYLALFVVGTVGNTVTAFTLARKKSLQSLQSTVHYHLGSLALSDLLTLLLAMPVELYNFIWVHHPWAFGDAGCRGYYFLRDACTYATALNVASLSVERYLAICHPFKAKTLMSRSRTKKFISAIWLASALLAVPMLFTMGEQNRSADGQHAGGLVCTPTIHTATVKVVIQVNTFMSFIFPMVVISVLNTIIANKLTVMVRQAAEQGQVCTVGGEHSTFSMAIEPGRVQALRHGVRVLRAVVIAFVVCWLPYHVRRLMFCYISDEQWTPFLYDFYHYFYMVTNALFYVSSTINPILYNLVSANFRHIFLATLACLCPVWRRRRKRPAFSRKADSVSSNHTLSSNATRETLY

B1: compound XVI, SEQ ID NO: 9-[Lys8, Tle12]NT(8-13) (peptide)
peptide: Propionyl-[dC]M[Pip]RLR[Sar]CKRPY[Tle]L-OH
modifications: disulfide 1-8
SMILES: CCC(=O)N[C@@H]1CSSC[C@@H](C(=O)N[C@@H](CCCCN)C(=O)N[C@@H](CCCNC(=N)N)C(=O)N2CCC[C@H]2C(=O)N[C@@H](Cc2ccc(O)cc2)C(=O)N[C@H](C(=O)N[C@@H](CC(C)C)C(=O)O)C(C)(C)C)NC(=O)CN(C)C(=O)[C@H](CCCNC(=N)N)NC(=O)[C@H](CC(C)C)NC(=O)[C@H](CCCNC(=N)N)NC(=O)[C@@H]2CCCCN2C(=O)[C@H](CCSC)NC1=O
Turning to B1, the inhibition constant (Ki) turned out to be 0.15 nM in experiment [1] and 0.12 nM in experiment [2].

B2: compound X, SEQ ID NO: 9-GGG-NT(6-13) (peptide)
peptide: Propionyl-[dC]M[Pip]RLR[Sar]CGGGKPRRPYIL-OH
modifications: disulfide 1-8
SMILES: CCC(=O)N[C@@H]1CSSC[C@@H](C(=O)NCC(=O)NCC(=O)NCC(=O)N[C@@H](CCCCN)C(=O)N2CCC[C@H]2C(=O)N[C@@H](CCCNC(=N)N)C(=O)N[C@@H](CCCNC(=N)N)C(=O)N2CCC[C@H]2C(=O)N[C@@H](Cc2ccc(O)cc2)C(=O)N[C@H](C(=O)N[C@@H](CC(C)C)C(=O)O)[C@@H](C)CC)NC(=O)CN(C)C(=O)[C@H](CCCNC(=N)N)NC(=O)[C@H](CC(C)C)NC(=O)[C@H](CCCNC(=N)N)NC(=O)[C@@H]2CCCCN2C(=O)[C@H](CCSC)NC1=O
Take B2: the affinity in experiment [1], expressed as Ki, was 0.13 nM.

B3: compound XV, SEQ ID NO: 9-[Tle12]NT(8-13) (peptide)
peptide: Propionyl-[dC]M[Pip]RLR[Sar]CRRPY[Tle]L-OH
modifications: disulfide 1-8
SMILES: CCC(=O)N[C@@H]1CSSC[C@@H](C(=O)N[C@@H](CCCNC(=N)N)C(=O)N[C@@H](CCCNC(=N)N)C(=O)N2CCC[C@H]2C(=O)N[C@@H](Cc2ccc(O)cc2)C(=O)N[C@H](C(=O)N[C@@H](CC(C)C)C(=O)O)C(C)(C)C)NC(=O)CN(C)C(=O)[C@H](CCCNC(=N)N)NC(=O)[C@H](CC(C)C)NC(=O)[C@H](CCCNC(=N)N)NC(=O)[C@@H]2CCCCN2C(=O)[C@H](CCSC)NC1=O
For B3, the inhibition constant Ki in experiment [1] turned out to be 0.4 nM; in experiment [2], 0.06 nM.

B4: compound XX, SEQ ID NO: 11-[Lys8, Tle12]NT(8-13) (peptide)
peptide: Propionyl-[dC]M[Pip]RLR[Sar][Pen]KRPY[Tle]L-OH
modifications: disulfide 1-8
SMILES: CCC(=O)N[C@@H]1CSSC(C)(C)[C@@H](C(=O)N[C@@H](CCCCN)C(=O)N[C@@H](CCCNC(=N)N)C(=O)N2CCC[C@H]2C(=O)N[C@@H](Cc2ccc(O)cc2)C(=O)N[C@H](C(=O)N[C@@H](CC(C)C)C(=O)O)C(C)(C)C)NC(=O)CN(C)C(=O)[C@H](CCCNC(=N)N)NC(=O)[C@H](CC(C)C)NC(=O)[C@H](CCCNC(=N)N)NC(=O)[C@@H]2CCCCN2C(=O)[C@H](CCSC)NC1=O
As to B4, the inhibitory constant (Ki) in experiment [1] is 0.11 nM; in experiment [2] it was 0.08 nM.

B5: compound XVII, SEQ ID NO: 9-[Lys9, Tle12]NT(8-13) (peptide)
peptide: Propionyl-[dC]M[Pip]RLR[Sar]CRKPY[Tle]L-OH
modifications: disulfide 1-8
SMILES: CCC(=O)N[C@@H]1CSSC[C@@H](C(=O)N[C@@H](CCCNC(=N)N)C(=O)N[C@@H](CCCCN)C(=O)N2CCC[C@H]2C(=O)N[C@@H](Cc2ccc(O)cc2)C(=O)N[C@H](C(=O)N[C@@H](CC(C)C)C(=O)O)C(C)(C)C)NC(=O)CN(C)C(=O)[C@H](CCCNC(=N)N)NC(=O)[C@H](CC(C)C)NC(=O)[C@H](CCCNC(=N)N)NC(=O)[C@@H]2CCCCN2C(=O)[C@H](CCSC)NC1=O
For B5, the values for the inhibition constant Ki in experiment [1] and in experiment [2] were 0.47 nM and 0.19 nM, respectively.

B6: [Lys8, Tle12]NT(8-13) (peptide)
peptide: KRPY[Tle]L
notes: X stands for Tle
As to B6, the values for the inhibition constant Ki in experiment [1] and in experiment [2] were 0.22 nM and 0.68 nM, respectively.

B7: [Trp11, Tle12]NT(8-13) (peptide)
peptide: RRPW[Tle]L
notes: X stands for Tle
For the molecule B7, the results for the inhibitory constant (Ki) in experiment [1] and in experiment [2] were 3.1 nM and 0.85 nM, respectively.

B8: [Lys9, Tle12]NT(8-13) (peptide)
peptide: RKPY[Tle]L
notes: X stands for Tle
Regarding B8, the inhibitory constant (Ki) in experiment [1] is 1.7 nM; in experiment [2], 4.2 nM.

B9: [Lys8, Trp11, Tle12]NT(8-13) (peptide)
peptide: KRPW[Tle]L
notes: X stands for Tle
Regarding B9, the values for the Ki in experiment [1] and in experiment [2] were 13.8 nM and 3.31 nM, respectively.

B10: compound XVIII, SEQ ID NO: 9-[Trp11, Tle12]NT(8-13) (peptide)
peptide: Propionyl-[dC]M[Pip]RLR[Sar]CRRPW[Tle]L-OH
modifications: disulfide 1-8
SMILES: CCC(=O)N[C@@H]1CSSC[C@@H](C(=O)N[C@@H](CCCNC(=N)N)C(=O)N[C@@H](CCCNC(=N)N)C(=O)N2CCC[C@H]2C(=O)N[C@@H](Cc2c[nH]c3ccccc23)C(=O)N[C@H](C(=O)N[C@@H](CC(C)C)C(=O)O)C(C)(C)C)NC(=O)CN(C)C(=O)[C@H](CCCNC(=N)N)NC(=O)[C@H](CC(C)C)NC(=O)[C@H](CCCNC(=N)N)NC(=O)[C@@H]2CCCCN2C(=O)[C@H](CCSC)NC1=O
Take B10: the Ki in experiment [1] was 2.98 nM; in experiment [2], 0.02 nM.

B11: compound XIX, SEQ ID NO: 9-[Lys8, Trp11, Tle12]NT(8-13) (peptide)
peptide: Propionyl-[dC]M[Pip]RLR[Sar]CKRPW[Tle]L-OH
modifications: disulfide 1-8
SMILES: CCC(=O)N[C@@H]1CSSC[C@@H](C(=O)N[C@@H](CCCCN)C(=O)N[C@@H](CCCNC(=N)N)C(=O)N2CCC[C@H]2C(=O)N[C@@H](Cc2c[nH]c3ccccc23)C(=O)N[C@H](C(=O)N[C@@H](CC(C)C)C(=O)O)C(C)(C)C)NC(=O)CN(C)C(=O)[C@H](CCCNC(=N)N)NC(=O)[C@H](CC(C)C)NC(=O)[C@H](CCCNC(=N)N)NC(=O)[C@@H]2CCCCN2C(=O)[C@H](CCSC)NC1=O
In the case of B11, the values for the Ki in experiment [1] and in experiment [2] were 6.34 nM and 0.03 nM, respectively.
